Test results as given in patent US20220025021A1 (BETH ISRAEL DEACONESS MEDICAL CENTER, published 2022).

What was measured:
Assay in all cases: cell-based or functional assay
[1] = target: HIV-1 envelope glycoprotein of pseudovirus 0260.v5.c36 (HIV-1)
[2] = target: HIV-1 envelope glycoprotein of pseudovirus RHPA4259.7 (HIV-1)
[3] = target: HIV-1 envelope glycoprotein of pseudovirus CNE52 (HIV-1)
[4] = target: HIV-1 envelope glycoprotein of pseudovirus DU172.17 (HIV-1)
[5] = target: HIV-1 envelope glycoprotein of pseudovirus BB1012-11.TC21 (HIV-1)
[6] = target: HIV-1 envelope glycoprotein of pseudovirus SC422661.8 (HIV-1)

Binder	IC50 (neutralization in TZM.bl cells) [1] [µg/mL]	IC80 (neutralization in TZM.bl cells) [1] [µg/mL]	IC50 (neutralization in TZM.bl cells) [2] [µg/mL]	IC80 (neutralization in TZM.bl cells) [2] [µg/mL]	IC50 (neutralization in TZM.bl cells) [3] [µg/mL]	IC80 (neutralization in TZM.bl cells) [3] [µg/mL]	IC50 (neutralization in TZM.bl cells) [4] [µg/mL]	IC80 (neutralization in TZM.bl cells) [4] [µg/mL]	IC50 (neutralization in TZM.bl cells) [5] [µg/mL]	IC80 (neutralization in TZM.bl cells) [5] [µg/mL]	IC50 (neutralization in TZM.bl cells) [6] [µg/mL]	IC80 (neutralization in TZM.bl cells) [6] [µg/mL]
MS-93 (antibody) VH: not shown VL: DIVLTQSPLSLSVTPGESASISCKSSHSLIHGDRNNYLAWYVQKPGRSPQLLIYLASSRASGVPDRFSGSGSDKDFTLKISRVETEDVGTYYCMQGRESPWTFGQGTKVDIKRTVAAPSVFIFPPSDEQLKSGTASVVCLLNNFYPREAKVQWKVDNALQSGNSQESVTEQDSKDSTYSLSSTLTLSKADYEKHKVYACEVTHQGLSSPVTKSFNRGEC	0.034	0.116	0.358	1.6	0.636	5.6	3.24	9.14	0.034	0.118	0.333	2.71
MS-100 (antibody) VH: not shown VL: DFVLTQSPHSLSVTPGEPASISCKSSHSLIHGDRNNYLAWYVQKPGRSPQLLIYLASSRASGVPDRFSGSGSGKDFTLKISRVETEDVGTYYCMQGRESPWTFGQGTKVDIKRTVAAPSVFIFPPSDEQLKSGTASVVCLLNNFYPREAKVQWKVDNALQSGNSQESVTEQDSKDSTYSLSSTLTLSKADYEKHKVYACEVTHQGLSSPVTKSFNRGEC	0.019	0.053	0.142	0.694	0.147	2.02	1.56	5.25	0.029	0.095	0.184	1.31
MS-98 (antibody) VH: not shown VL: DFVLTQSPLSLSVTPGESASISCKSSHSLIHGDRNNYLAWYVQKPGRSPQLLIYLASSRASGVPDRFSGSGSGKDFTLKISRVETEDVGTYYCMQGRESPWTFGQGTKVDIKRTVAAPSVFIFPPSDEQLKSGTASVVCLLNNFYPREAKVQWKVDNALQSGNSQESVTEQDSKDSTYSLSSTLTLSKADYEKHKVYACEVTHQGLSSPVTKSFNRGEC	0.019	0.068	0.146	0.676	0.237	1.91	1.44	6.33	0.025	0.114	0.301	2.14
MS-97 (antibody) VH: not shown VL: DFVLTQSPLSLSVTPGEPASISCKSSHSLIHGDRNNYLAWYVQKPGRSPQLLIYLASSRASGVPDRFSGSGSDKDFTLKISRVETEDVGTYYCMQGRESPWTFGQGTKVDIKRTVAAPSVFIFPPSDEQLKSGTASVVCLLNNFYPREAKVQWKVDNALQSGNSQESVTEQDSKDSTYSLSSTLTLSKADYEKHKVYACEVTHQGLSSPVTKSFNRGEC	0.028	0.096	0.183	0.824	0.214	1.62	2.21	7.54	0.04	0.13	0.311	2.09
MS-102 (antibody) VH: not shown VL: DFVLTQSPHSLSVTPGESASISCKSSHSLIHGDRNNYLAWYVQKPGRSPQLLIYLASSRASGVPDRFSGSGSGKDFTLKISRVEAEDVGTYYCMQGRESPWTFGQGTKVDIKRTVAAPSVFIFPPSDEQLKSGTASVVCLLNNFYPREAKVQWKVDNALQSGNSQESVTEQDSKDSTYSLSSTLTLSKADYEKHKVYACEVTHQGLSSPVTKSFNRGEC	0.019	0.053	0.178	0.649	0.211	1.87	1.16	5.91	0.031	0.1	0.17	1.21
